Measurements published in the supplement of paper PMC7125110.
± gives the standard error. For some of these results: Fewer inactive variants are shown than the library holds.

B1: glmS ribozyme (parent)
chain: AUAAAAGCGCCAGAACUACAGAAAUGUAGUUGACGAGGAGGAGGUUUAUCGAAUUUUCGGCGGAUGCCUCCAAA

How the values were obtained:
Conditions in all cases: with glucosamine-6-phosphate
glucosamine-6-phosphate [1] = variants of: B1; experiment: kcat; higher = faster cleavage; RNA array
Method in brief: (§1)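 Glucosamine-6-phosphate, from 40 μM to 10 mM in HEPES/KCl/Mg(OAc)2 buffer, was flowed over sequenced MiSeq chips carrying barcoded ribozyme variants transcribed in situ by E. coli RNA polymerase. A hybridised Cy3 probe tracked the variants at 37 °C as tiles were imaged over ~14 h. kobs, kcat and KM were obtained by fitting normalised per-tile medians to exponential decays and then applying weighted Michaelis–Menten fits across concentrations.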

glucosamine-6-phosphate [2] = variants of: B1; experiment: KM; higher = weaker cofactor use; RNA array
Method in brief: as §1

glucosamine-6-phosphate [3] = variants of: B1; experiment: self-cleavage kobs at 10000 uM GlcN6P; higher = faster cleavage; RNA array
Method in brief: as §1

glucosamine-6-phosphate [4] = variants of: B1; experiment: self-cleavage kobs at 40 uM GlcN6P; higher = faster cleavage; RNA array
Method in brief: as §1

glucosamine-6-phosphate [5] = variants of: B1; experiment: self-cleavage kobs at 160 uM GlcN6P; higher = faster cleavage; RNA array
Method in brief: as §1

glucosamine-6-phosphate [6] = variants of: B1; experiment: self-cleavage kobs at 640 uM GlcN6P; higher = faster cleavage; RNA array
Method in brief: as §1

glucosamine-6-phosphate [7] = variants of: B1; experiment: self-cleavage kobs at 2500 uM GlcN6P; higher = faster cleavage; RNA array
Method in brief: as §1

Row | Variant | kcat (glucosamine-6-phosphate [1]) [s⁻¹] | KM (glucosamine-6-phosphate [2]) [µM] | self-cleavage kobs at 10000 uM GlcN6P (glucosamine-6-phosphate [3]) [s⁻¹] | self-cleavage kobs at 40 uM GlcN6P (glucosamine-6-phosphate [4]) [s⁻¹] | self-cleavage kobs at 160 uM GlcN6P (glucosamine-6-phosphate [5]) [s⁻¹] | self-cleavage kobs at 640 uM GlcN6P (glucosamine-6-phosphate [6]) [s⁻¹] | self-cleavage kobs at 2500 uM GlcN6P (glucosamine-6-phosphate [7]) [s⁻¹]
1 | U31C G32A C58A U65G | 4.59e-05 ± 1e-06 | 2320 ± 190 | 3.72e-05 ± 1.4e-05 | – | – | – | –
2 | C10A G38A | < 1e-05 | – | – | < 1e-05 | – | – | –
3 | U47C A52C | 4.02e-05 ± 1.2e-06 | 3020 ± 290 | – | – | < 1e-05 | < 1e-05 | –
4 | U30G C67A | 0.00145 ± 0.00047 | – | 0.00188 ± 0.00029 | 6.13e-05 ± 1.3e-05 | 0.000175 ± 3.3e-05 | 0.000561 ± 9.1e-05 | 0.00063 ± 0.00017
5 | C58G C71A | 3.56e-05 ± 9.8e-06 | – | 1.89e-05 ± 9.2e-06 | – | 4.45e-05 ± 1e-05 | – | 4.27e-05 ± 7.5e-06
6 | G29A G32A C71A | 0.000259 ± 0.00011 | – | 0.000201 ± 4.4e-05 | – | – | 6.03e-05 ± 2.6e-05 | –
7 | U47A U69G | 7.34e-05 ± 1.1e-05 | – | 5.37e-05 ± 1e-05 | – | – | 7.68e-05 ± 1.1e-05 | 8.85e-05 ± 1.1e-05
8 | G62U C67G C68U | 1.17e-05 ± 4.6e-06 | – | – | – | – | – | –
9 | A6U G13U | < 1e-05 | – | – | < 1e-05 | – | < 1e-05 | –
10 | U31C A53G | 0.00573 ± 0.0015 | 1960 ± 740 | 0.00495 ± 0.00059 | 0.000158 ± 1.8e-05 | 0.000305 ± 5.6e-05 | 0.00167 ± 0.00042 | 0.00309 ± 0.00042
11 | U31C A53U | 0.00494 ± 0.0007 | 2460 ± 510 | 0.00421 ± 0.00036 | 9.39e-05 ± 8.5e-06 | 0.000269 ± 4.7e-05 | 0.000925 ± 8.8e-05 | 0.00236 ± 0.00022
12 | A15U U54G U65G | 0.000547 ± 5.8e-05 | 1670 ± 300 | 0.00045 ± 0.00011 | – | – | 0.000149 ± 2.4e-05 | 0.00039 ± 0.00013
13 | G35U G59U G66U | < 1e-05 | – | – | – | – | < 1e-05 | –
14 | G32U C71G | 0.000107 ± 7.3e-06 | 741 ± 280 | 0.000102 ± 8.2e-06 | – | – | 6.13e-05 ± 1.6e-05 | 7.51e-05 ± 9.8e-06
15 | A15C G32C | 0.000182 ± 5.4e-06 | 3300 ± 240 | 0.000138 ± 1.7e-05 | – | – | 3.08e-05 ± 1e-05 | 7.51e-05 ± 2e-05
16 | U30A A53C | 0.00232 ± 0.00044 | 3590 ± 950 | 0.00196 ± 0.00049 | – | 0.000107 ± 2.5e-05 | 0.000357 ± 6.9e-05 | 0.000882 ± 0.00014
17 | G32C U47G | 1.21e-05 ± 1.1e-07 | 403 ± 39 | – | – | – | – | –

Row | Variant | kcat (glucosamine-6-phosphate [1]) [s⁻¹] | KM (glucosamine-6-phosphate [2]) [µM] | self-cleavage kobs at 10000 uM GlcN6P (glucosamine-6-phosphate [3]) [s⁻¹] | self-cleavage kobs at 40 uM GlcN6P (glucosamine-6-phosphate [4]) [s⁻¹] | self-cleavage kobs at 160 uM GlcN6P (glucosamine-6-phosphate [5]) [s⁻¹] | self-cleavage kobs at 640 uM GlcN6P (glucosamine-6-phosphate [6]) [s⁻¹] | self-cleavage kobs at 2500 uM GlcN6P (glucosamine-6-phosphate [7]) [s⁻¹]
18 | C61U C70G | 1.1e-05 ± 2e-06 | – | – | – | – | – | –
19 | G29A U54A | 0.00945 ± 0.0024 | 3150 ± 1100 | 0.00745 ± 0.0014 | 0.000135 ± 2.1e-05 | – | 0.0011 ± 0.00037 | 0.00422 ± 0.00084
20 | G32A U47G | 0.00115 ± 0.0003 | 3780 ± 1600 | 0.000806 ± 0.00013 | – | 5.19e-05 ± 1.5e-05 | 0.000142 ± 3e-05 | 0.000687 ± 0.00015
21 | A36G C68G | 1.27e-05 ± 2.3e-06 | – | – | – | – | – | –
22 | A14U U46C | 0.00036 ± 8.4e-05 | 956 ± 430 | 0.000305 ± 4e-05 | – | 6.29e-05 ± 9.9e-06 | 0.000126 ± 1.4e-05 | 0.000395 ± 5.3e-05
23 | U54G G60A | 2.28e-05 ± 5.4e-06 | – | – | – | < 1e-05 | – | –
24 | U46C | 0.00387 ± 0.00034 | 1410 ± 170 | 0.00329 ± 7.7e-05 | 0.000108 ± 2.5e-06 | 0.000364 ± 1.3e-05 | 0.00126 ± 3.5e-05 | 0.00342 ± 0.00018
25 | G41C G66A | 0.00127 ± 0.00038 | 4000 ± 1900 | 0.000851 ± 0.00016 | – | 6.76e-05 ± 2.3e-05 | 0.00013 ± 3.9e-05 | 0.000621 ± 0.00011
26 | G29C U57A | 4.62e-05 ± 8e-06 | – | 3.78e-05 ± 1.1e-05 | – | – | – | –
27 | U30C G41A | 1.28e-05 ± 1.8e-06 | – | – | – | – | < 1e-05 | –
28 | C16U U46G | 0.00589 ± 0.00074 | 1810 ± 320 | 0.00531 ± 0.00055 | 0.00014 ± 1.3e-05 | 0.000489 ± 8.8e-05 | 0.00131 ± 0.00016 | 0.00323 ± 0.0005
29 | G32U U45A | 0.00202 ± 0.00071 | 3440 ± 1700 | 0.00155 ± 0.0003 | 0.000103 ± 3.9e-05 | 9.56e-05 ± 2.1e-05 | 0.000279 ± 6.8e-05 | 0.000762 ± 0.00034
30 | A33C U46A | 3.08e-05 ± 7.5e-06 | – | – | – | < 1e-05 | – | 3.48e-05 ± 1.7e-05
31 | U30A C67G | 0.000166 ± 1.4e-05 | 1650 ± 330 | 0.00015 ± 1.3e-05 | – | – | 5.03e-05 ± 5.9e-06 | 9.16e-05 ± 8.4e-06
32 | A15C C71U | 0.00455 ± 0.0014 | 1580 ± 690 | 0.00453 ± 0.00056 | 0.000165 ± 1.6e-05 | 0.000358 ± 4.6e-05 | 0.00111 ± 0.00013 | 0.00266 ± 0.00039
33 | U30A G41U | 0.000138 ± 2.1e-05 | 608 ± 300 | 0.000117 ± 1.4e-05 | – | – | 6.73e-05 ± 9.9e-06 | 0.000147 ± 1.8e-05
34 | A64U C67G | < 1e-05 | – | – | < 1e-05 | – | < 1e-05 | –
